This is an account of results in patent US20040152634A1, “Chemokine antagonists and uses thereof” (priority 2002, published 2004).

The target of test [1] is T1, extracellular domain of the prolactin receptor (hPRLbp) (Homo sapiens, UniProt P16471).
T1 construct: with the extracellular domain of the prolactin receptor (hPRLbp)
T1 sequence (P16471 25-234 limits assumed): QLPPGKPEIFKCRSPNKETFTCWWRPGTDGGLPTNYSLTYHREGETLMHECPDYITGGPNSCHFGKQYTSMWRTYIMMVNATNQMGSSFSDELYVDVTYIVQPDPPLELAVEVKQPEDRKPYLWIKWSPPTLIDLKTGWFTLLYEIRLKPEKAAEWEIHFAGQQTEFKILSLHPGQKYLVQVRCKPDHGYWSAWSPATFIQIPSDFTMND
The conditions noted are these: cited from earlier work; for Kd: read-out: Kd, binding to hPRLbp.

For test [2], the target named is IL-8 (CXCL8, interleukin 8) (UniProt P10145). As to the kind of experiment: inhibition of 125I-IL-8 binding to neutrophil membranes, (II).
Test [3] shares this target. The test is described as follows: inhibition of 125I-IL-8 binding to neutrophil membranes, in the presence of 100 uM ZnCl2.
For test [4] the target is unchanged. As to the kind of experiment: inhibition of 125I-IL-8 binding to neutrophil membranes; with 100 uM ZnCl2 against without Zn(II).

Read-outs that look alike come from different tables or passages of the source.

IL-8 (CXCL8, interleukin 8), sequence (P10145 28-99 limits assumed): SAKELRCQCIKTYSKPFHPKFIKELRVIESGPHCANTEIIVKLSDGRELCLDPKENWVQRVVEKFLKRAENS

Regarding “hGH: human growth hormone, binds the extracellular domain of the prolactin receptor (hPRLbp)”, the Kd in test [1] (in the absence of Zn(II)) is 270 nM; in test [1] (in the presence of Zn(II)), 0.033 nM. Also, the “increase of binding affinity with Zn(II)” value in test [1] (presence vs absence of Zn(II)) is “about 8,000 fold”.

Take “synthetic N-terminal peptide CXCR1 (21-residues in length in which Met 12 was replaced by a His to create a Zn(II) binding site)”: the Ki was 141000 nM in test [2] and 1120 nM in test [3]. In addition, the fold better inhibition with Zn(II) than in the absence of Zn(II) in test [4] was 125 fold.

What is called Kd is a measure of binding affinity in units of concentration. Usually Ki stands for a measure of affinity in units of concentration, obtained from inhibition or displacement.
